This is an account of results in patent US20170002346A1.

For this test, the target named is V5 epitope tagged Sag1p fragment fusion displayed on the cell surface of Pichia pastoris (vectors without insert, s1-V5-SAG1 constructs) (S. cerevisiae) (UniProt P20840). In words: flow cytometry, FITC anti-V5 staining of plate-grown SuperMan5 cells with GAP and UP promoter constructs (5 isolates each). A general note: In flow cytometry, cells or beads pass a laser one at a time.
Chain of UniProt P20840 (P20840 331-650): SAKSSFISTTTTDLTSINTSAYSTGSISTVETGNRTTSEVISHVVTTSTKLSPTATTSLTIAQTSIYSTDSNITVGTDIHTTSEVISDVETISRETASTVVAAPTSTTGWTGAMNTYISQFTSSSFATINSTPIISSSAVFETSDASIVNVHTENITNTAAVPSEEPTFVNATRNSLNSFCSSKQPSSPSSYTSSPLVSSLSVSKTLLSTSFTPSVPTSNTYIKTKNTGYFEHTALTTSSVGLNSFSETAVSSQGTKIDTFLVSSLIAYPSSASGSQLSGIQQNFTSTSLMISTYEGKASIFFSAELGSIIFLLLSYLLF

In the case of “FITC-labeled anti-V5 (Abcam, V5-tag-antibody-FITC-ab1209)”, the FITC signal against unlabeled cells (orders of magnitude) amounted to 2.
